Assay results from patent publication US20070202103A1 (EMD LEXIGEN RESEARCH CENTER, published 2007).
“And” between values parts separate entries of the source, which are not always exact repeats. Equal entries are not always repeated.

B1: huBC1-IL12 (BC1-IL12 fusion protein of Example 2) (protein, part only; not given: constant regions and IL-12 subunits, not shown: a dimerising Fc or GST)
heavy, part: EVQLVQSGADVKKPGASVKVSCKASGYTFTNYVMHWVRQAPGQGLEWLGYINPYNDGTQYNERFKGRVTMTGDTSISTAYMELSRLTSDDTAVYYCAREVYGNYIWGNWGQGTLVSVSS
light: EIVLTQSPGTLSLSPGERATLSCSASSSISSNYLHWYQQKPGQAPRLLIYRTSNLASGIPDRFSGSGSGTDFTLTISRLEPEDFAVYYCQQGSSIPFTFGQGTKLEIKRTVAAPSVFIFPPSDEQLKSGTASVVCLLNNFYPREAKVQWKVDNALQSGNSQESVTEQDSKDSTYSLSSTLTLSKADYEKHKVYACEVTHQGLSSPVTKSFNRGEC
B2: huBC1 (humanised BC1 antibody, human constant regions) (antibody, V domains shown)
VH: B1 heavy, part
VL: EIVLTQSPGTLSLSPGERATLSCSASSSISSNYLHWYQQKPGQAPRLLIYRTSNLASGIPDRFSGSGSGTDFTLTISRLEPEDFAVYYCQQGSSIPFTFGQGTKLEIK
notes: Only variable domains are tied to the unfused antibody; also called huBC1 antibody; HuBC1 Ab

Key:
[1] = biological target: polypeptide including human fibronectin domains 7, ED-B, 8, and 9 (human) (UniProt P02751); assay: SPR
[2] = biological target: polypeptide including human fibronectin domains 7, ED-B, 8, and 9 (human) (UniProt P02751); assay: SPR, experiment 2
[3] = biological target: recombinant oncofoetal fibronectin FN7B89 (Fn MRGS-7B89-HHHHHH) (human); assay: SPR kinetics, FN7B89 on chip, bivalent fit
[4] = biological target: polypeptide including human fibronectin domains 7, ED-B, 8, and 9 (human) (UniProt P02751); assay: SPR, against huBC1
[5] = biological target: polypeptide including human fibronectin domains 7, ED-B, 8, and 9 (human) (UniProt P02751); assay: SPR, experiment 1; exp. 1
[6] = biological target: polypeptide including human fibronectin domains 7, ED-B, 8, and 9 (human) (UniProt P02751); assay: SPR, experiment 1
[7] = biological target: polypeptide including human fibronectin domains 7, ED-B, 8, and 9 (human) (UniProt P02751); assay: SPR, experiment 2; exp. 2
[8] = biological target: T1, polypeptide including human fibronectin domains 7, ED-B, 8, and 9 (human, UniProt P02751 1173-1538, limits assumed); assay: SPR, experiment 2; exp. 2
T1 construct: domain: fibronectin domains 7, ED-B, 8, and 9

[9] = biological target: T1, polypeptide including human fibronectin …; assay: SPR, experiment 2
[10] = biological target: recombinant oncofoetal fibronectin FN7B89 (Fn MRGS-7B89-HHHHHH) (human); assay: SPR kinetics, against muBC1
[11] = biological target: T1, polypeptide including human fibronectin …; assay: SPR, experiment 1
[12] = biological target: T1, polypeptide including human fibronectin …; assay: SPR, experiment 1; exp. 1

Chain of polypeptide including human fibronectin domains 7, ED-B, 8, and 9 (human) (P02751 1173-1538 limits assumed): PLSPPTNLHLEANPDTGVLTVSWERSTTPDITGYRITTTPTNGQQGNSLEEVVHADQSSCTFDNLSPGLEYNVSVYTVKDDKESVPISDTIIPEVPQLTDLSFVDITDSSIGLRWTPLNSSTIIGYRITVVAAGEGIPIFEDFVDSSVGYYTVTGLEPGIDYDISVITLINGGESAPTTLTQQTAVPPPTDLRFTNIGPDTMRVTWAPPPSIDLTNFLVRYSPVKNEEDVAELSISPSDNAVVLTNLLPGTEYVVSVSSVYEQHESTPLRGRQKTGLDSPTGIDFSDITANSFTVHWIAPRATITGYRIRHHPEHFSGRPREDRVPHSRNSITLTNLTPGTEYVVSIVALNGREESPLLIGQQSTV
T1 sequence (P02751 1173-1538 limits assumed): as above

Molecule | koff [2] [s⁻¹] | kon [2] [M⁻¹ s⁻¹] | Kd [3] [nM] | koff [3] [s⁻¹] | kon [3] [M⁻¹ s⁻¹] | other results
muBC1 (murine constant regions) (antibody) | 0.0011 | 1650 | 377 | 0.00065 | 1700 | Kd [1]: 686 nM
huBC1-huIL12 (humanised BC1 antibody-human IL12 fusion protein) (from UniProt P29460 23-328) | – | – | 17.3 | 0.00087 | 50900 | –
huBC1-muIL12 (HuBC1-g1-M1-muIL12) (from UniProt P43431 23-215; P43432 23-335) | – | – | 13.9 | 0.00109 | 79500 | –
B1 | 0.0016 | 19000 | – | – | – | fold tighter binding than the huBC1 antibody alone [4]: > 10 fold and 16 fold; Kd [5]: 7.6 nM; koff [6]: 0.0013 s⁻¹; kon [6]: 17000 M⁻¹ s⁻¹; Kd [7]: 8.3 nM
B2 | – | – | 54 | 0.00312 | 57600 | Kd [8]: 138 nM; koff [9]: 0.01 s⁻¹; kon [9]: 73000 M⁻¹ s⁻¹; fold faster off-rate than muBC1 [10]: 5 fold; fold faster on-rate than muBC1 [10]: 34 fold; koff [11]: 0.0078 s⁻¹; kon [11]: 62000 M⁻¹ s⁻¹; Kd [12]: 125 nM
